Blank lines part the entries; values can stand above or below the molecule they belong to.
Experiments:
[1] = target: T1, rCRISPA (rCRISP1) (Rattus norvegicus, UniProt P12020); assay: Protease activity screen: cleavage of substrate peptides by native rCRISPA (+DANA protocol), measured by fluorescence; assay type: biochemical; details: 5 μM substrate peptide, 1 μg enzyme, 100 mM NaCl, 25 mM Tris-Cl, pH 7.5; fluorescence at ten minute intervals for 130 minutes; FIG. 13
T1 construct: Native rCRISPA (rCRISP1) protein, purified with DANA present; from tissue; host or cells: rat epididymis
T1 sequence (P12020 20-246): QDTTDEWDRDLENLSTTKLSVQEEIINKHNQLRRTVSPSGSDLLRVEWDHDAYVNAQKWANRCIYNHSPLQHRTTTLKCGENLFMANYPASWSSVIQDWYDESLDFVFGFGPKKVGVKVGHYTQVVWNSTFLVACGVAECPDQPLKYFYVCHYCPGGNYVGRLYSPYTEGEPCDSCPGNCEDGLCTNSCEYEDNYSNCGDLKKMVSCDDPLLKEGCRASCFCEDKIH
Procedure: FIG. 13 is a graph showing rCRISPA (rCRISP1) protease activity (assay conditions: 5 μM substrate peptide, 1 μg enzyme, 100 mM NaCl, 25 mM Tris-Cl, pH 7.5). A. Cleaved peptides A04 (RGARARLG), N08 (RKRRAPLA), N12 (AKRAASQI), N17 (RKRRAVLT), B22 (APQRFGKK), B17 (RQRYGKRS), B23 (RVKRYRQS), H03 (RNKRAVQG). B. Cleaved peptides B20 (PQRFGRNT), C16 (RVLGLKAH), J21 (LRNRAQSG), H07 (RVKRQVRS), H11 (RRLLRAIP), N05 (RARRELAP), H01 (RKKRSTKK), O22 (GGVRGPRV), O16 (AATRRQAV), O23 (KNVAMQKG), G24 (RRKRSTRE), A09 (RMRRYADA), M02 (EKQRIIGG), H17 (NGLRADPM). C. Uncleaved peptides L16 (KTPRWGG), N10 (FYRADQPR), B11 (AAGVAPLS), J03 (PQLHSTGG), C01 (GPQGLLGA), K11 (VIPRSGGS), M07 (GLQRALEI), A01 (WQGGRRKF), H02 (RAKRSVHF), A10 (SAARPAPP), M16 (RSRREADL), A05 (SYRKVLGQ), M18 (VHRDMAAR), C23 (RDAQAHPG), M09 (GSQHIRAE), E19 (RLGREGVQ), D06 (ALAEAMKK).
Native rCRISPA (rCRISP1) protein, purified with DANA present (see Example 4), was screened for the ability to cleave 360 unique peptides using the commercially available peptide substrate set (catalog # PrSS-360-75, JPT Peptide Technologies, Springfield, Va.). […] The substrate peptides cleaved by rCRISPA in this assay are represented by blue and green traces noted in FIG. 13. Peptides that were not cleaved by rCRISPA are also noted in FIG. 13.

[2] = test system: substrate peptide; assay: Protease activity of rCRISPA purified with or without the sialidase inhibitor DANA; assay type: biochemical, rat
Source text: The conservation of protease activity between CRISPA and CRISPC is predicted from both the primary amino acid sequence of the PR-1 domain and the overall domain structure conserved among Tex31 and all mammalian CRISPs. The PR-1 domain of Tex31 is hypothesized to contain a basic substrate recognition site with the predicted catalytic residues His130 and Glu115. The mammalian CRISPs have these residues conserved in the PR-1 domain. […] A sialylated glycan on rCRISPA may be influencing the protein's native confirmation and ability to recognize, bind, or cleave its substrate. If rat CRISPC is glycosylated and sialylated, the glycan may also be involved in the protein's confirmation and ability to recognize, bind, or cleave its substrate.
A protocol for the purification of rCRISPA (rCRISP1) from the epididymis was published in 1997 (Hall J. C. & Tubbs C. E., Prep. Biochem. Biotechnol. 27:239-51 (1997), incorporated herein by reference). Applicants have modified this protocol to include the following amounts of 2,3-dehydro-2-deoxy-N-acetyineuraminic acid (DANA) as an inhibitor of sialidase activity in each of the following buffers:
Protease activity was determined by measuring fluorescence (as per the manufacturer's protocol) at ten minute intervals for 130 minutes in the following assay conditions: […] substrate peptide, […] rCRISPA, 100 mM NaCl, 25 mM Tris-Cl, pH 7.5. […]

[3] = target: T2, substrate peptide C16 (RVLGLKAH) (not fully specified)
T2 chain: RVLGLKAH

[4] = target: T3, substrate peptide M18 (VHRDMAAR) (not fully specified)
T3 chain: VHRDMAAR

[5] = target: T4, substrate peptide N05 (RARRELAP) (not fully specified)
T4 chain: RARRELAP

[6] = target: T5, substrate peptide M16 (RSRREADL) (not fully specified)
T5 chain: RSRREADL

[7] = target: T6, substrate peptide H01 (RKKRSTKK) (not fully specified)
T6 chain: RKKRSTKK

[8] = target: T7, substrate peptide B20 (PQRFGRNT) (not fully specified)
T7 chain: PQRFGRNT

[9] = target: T8, substrate peptide O16 (AATRRQAV) (not fully specified)
T8 chain: AATRRQAV

[10] = target: T9, substrate peptide N10 (FYRADQPR) (not fully specified)
T9 chain: FYRADQPR

[11] = target: T10, substrate peptide A09 (RMRRYADA) (not fully specified)
T10 chain: RMRRYADA

[12] = target: T11, substrate peptide N08 (RKRRAPLA) (not fully specified)
T11 chain: RKRRAPLA

[13] = target: T12, substrate peptide M02 (EKQRIIGG) (not fully specified)
T12 chain: EKQRIIGG

[14] = target: T13, substrate peptide B22 (APQRFGKK) (not fully specified)
T13 chain: APQRFGKK

[15] = target: T14, substrate peptide H07 (RVKRQVRS) (not fully specified)
T14 chain: RVKRQVRS

[16] = target: T15, substrate peptide O22 (GGVRGPRV) (not fully specified)
T15 chain: GGVRGPRV

[17] = target: T16, substrate peptide E19 (RLGREGVQ) (not fully specified)
T16 chain: RLGREGVQ

[18] = target: T17, substrate peptide A05 (SYRKVLGQ) (not fully specified)
T17 chain: SYRKVLGQ

[19] = target: T18, substrate peptide A04 (RGARARLG) (not fully specified)
T18 chain: RGARARLG

[20] = target: T19, substrate peptide B11 (AAGVAPLS) (not fully specified)
T19 chain: AAGVAPLS

[21] = target: T20, substrate peptide H11 (RRLLRAIP) (not fully specified)
T20 chain: RRLLRAIP

[22] = target: T21, substrate peptide N17 (RKRRAVLT) (not fully specified)
T21 chain: RKRRAVLT

[23] = target: T22, substrate peptide K11 (VIPRSGGS) (not fully specified)
T22 chain: VIPRSGGS

[24] = target: T23, substrate peptide C23 (RDAQAHPG) (not fully specified)
T23 chain: RDAQAHPG

[25] = target: T24, substrate peptide A10 (SAARPAPP) (not fully specified)
T24 chain: SAARPAPP

[26] = target: T25, substrate peptide M09 (GSQHIRAE) (not fully specified)
T25 chain: GSQHIRAE

[27] = target: T26, substrate peptide J03 (PQLHSTGG) (not fully specified)
T26 chain: PQLHSTGG

[28] = target: T27, substrate peptide J21 (LRNRAQSG) (not fully specified)
T27 chain: LRNRAQSG

[29] = target: T28, substrate peptide A01 (WQGGRRKF) (not fully specified)
T28 chain: WQGGRRKF

[30] = target: T29, substrate peptide B23 (RVKRYRQS) (not fully specified)
T29 chain: RVKRYRQS

[31] = target: T30, substrate peptide D06 (ALAEAMKK) (not fully specified)
T30 chain: ALAEAMKK

[32] = target: T31, substrate peptide H03 (RNKRAVQG) (not fully specified)
T31 chain: RNKRAVQG

[33] = target: T32, substrate peptide N12 (AKRAASQI) (not fully specified)
T32 chain: AKRAASQI

[34] = target: T33, substrate peptide O23 (KNVAMQKG) (not fully specified)
T33 chain: KNVAMQKG

[35] = target: T34, substrate peptide C01 (GPQGLLGA) (not fully specified)
T34 chain: GPQGLLGA

[36] = target: T35, substrate peptide G24 (RRKRSTRE) (not fully specified)
T35 chain: RRKRSTRE

[37] = target: T36, substrate peptide H02 (RAKRSVHF) (not fully specified)
T36 chain: RAKRSVHF

[38] = target: T37, substrate peptide M07 (GLQRALEI) (not fully specified)
T37 chain: GLQRALEI

[39] = target: T38, substrate peptide H17 (NGLRADPM) (not fully specified)
T38 chain: NGLRADPM

[40] = target: T39, substrate peptide L16 (KTPRWGG) (not fully specified)
T39 chain: KTPRWGG

[41] = target: T40, substrate peptide B17 (RQRYGKRS) (not fully specified)
T40 chain: RQRYGKRS

cleavage of substrate peptide by rCRISPA (rCRISP1) protease activity [1]: Cleaved
Molecule: RKRRAVLT [N17, substrate peptide of the commercial peptide substrate set PrSS-360-75, JPT Peptide Technologies]

B1: native rCRISPA (rCRISP1) purified from epididymis in the presence of DANA (protein)
chain: QDTTDEWDRDLENLSTTKLSVQEEIINKHNQLRRTVSPSGSDLLRVEWDHDAYVNAQKWANRCIYNHSPLQHRTTTLKCGENLFMANYPASWSSVIQDWYDESLDFVFGFGPKKVGVKVGHYTQVVWNSTFLVACGVAECPDQPLKYFYVCHYCPGGNYVGRLYSPYTEGEPCDSCPGNCEDGLCTNSCEYEDNYSNCGDLKKMVSCDDPLLKEGCRASCFCEDKIH
protease activity of rCRISPA ([2]; purified using known procedures without DANA present): lacking protease activity | protease activity of rCRISPA ([2]; purified with DANA present): with protease activity | protease activity (fluorescence of substrate peptide) [3]: Cleaved peptides C16 (RVLGLKAH) | protease activity (fluorescence of substrate peptide) [4]: Uncleaved peptides M18 (VHRDMAAR) | protease activity (fluorescence of substrate peptide) [5]: Cleaved peptides N05 (RARRELAP) | protease activity (fluorescence of substrate peptide) [6]: Uncleaved peptides M16 (RSRREADL) | protease activity (fluorescence of substrate peptide) [7]: Cleaved peptides H01 (RKKRSTKK) | protease activity (fluorescence of substrate peptide) [8]: Cleaved peptides B20 (PQRFGRNT) | protease activity (fluorescence of substrate peptide) [9]: Cleaved peptides O16 (AATRRQAV) | protease activity (fluorescence of substrate peptide) [10]: Uncleaved peptides N10 (FYRADQPR) | protease activity (fluorescence of substrate peptide) [11]: Cleaved peptides A09 (RMRRYADA) | protease activity (fluorescence of substrate peptide) [12]: Cleaved peptides N08 (RKRRAPLA) | protease activity (fluorescence of substrate peptide) [13]: Cleaved peptides M02 (EKQRIIGG) | protease activity (fluorescence of substrate peptide) [14]: Cleaved peptides B22 (APQRFGKK) | protease activity (fluorescence of substrate peptide) [15]: Cleaved peptides H07 (RVKRQVRS) | protease activity (fluorescence of substrate peptide) [16]: Cleaved peptides O22 (GGVRGPRV) | protease activity (fluorescence of substrate peptide) [17]: Uncleaved peptides E19 (RLGREGVQ) | protease activity (fluorescence of substrate peptide) [18]: Uncleaved peptides A05 (SYRKVLGQ) | protease activity (fluorescence of substrate peptide) [19]: Cleaved peptides A04 (RGARARLG) | protease activity (fluorescence of substrate peptide) [20]: Uncleaved peptides B11 (AAGVAPLS) | protease activity (fluorescence of substrate peptide) [21]: Cleaved peptides H11 (RRLLRAIP) | protease activity (fluorescence of substrate peptide) [22]: Cleaved peptides N17 (RKRRAVLT) | protease activity (fluorescence of substrate peptide) [23]: Uncleaved peptides K11 (VIPRSGGS) | protease activity (fluorescence of substrate peptide) [24]: Uncleaved peptides C23 (RDAQAHPG) | protease activity (fluorescence of substrate peptide) [25]: Uncleaved peptides A10 (SAARPAPP) | protease activity (fluorescence of substrate peptide) [26]: Uncleaved peptides M09 (GSQHIRAE) | protease activity (fluorescence of substrate peptide) [27]: Uncleaved peptides J03 (PQLHSTGG) | protease activity (fluorescence of substrate peptide) [28]: Cleaved peptides J21 (LRNRAQSG) | protease activity (fluorescence of substrate peptide) [29]: Uncleaved peptides A01 (WQGGRRKF) | protease activity (fluorescence of substrate peptide) [30]: Cleaved peptides B23 (RVKRYRQS) | protease activity (fluorescence of substrate peptide) [31]: Uncleaved peptides D06 (ALAEAMKK) | protease activity (fluorescence of substrate peptide) [32]: Cleaved peptides H03 (RNKRAVQG) | protease activity (fluorescence of substrate peptide) [33]: Cleaved peptides N12 (AKRAASQI) | protease activity (fluorescence of substrate peptide) [34]: Cleaved peptides O23 (KNVAMQKG) | protease activity (fluorescence of substrate peptide) [35]: Uncleaved peptides C01 (GPQGLLGA) | protease activity (fluorescence of substrate peptide) [36]: Cleaved peptides G24 (RRKRSTRE) | protease activity (fluorescence of substrate peptide) [37]: Uncleaved peptides H02 (RAKRSVHF) | protease activity (fluorescence of substrate peptide) [38]: Uncleaved peptides M07 (GLQRALEI) | protease activity (fluorescence of substrate peptide) [39]: Cleaved peptides H17 (NGLRADPM) | protease activity (fluorescence of substrate peptide) [40]: Uncleaved peptides L16 (KTPRWGG) | protease activity (fluorescence of substrate peptide) [41]: Cleaved peptides B17 (RQRYGKRS)

— US20060275803A1, “Rat and mouse members of the CRISP family of genes” (Wyeth, priority 2005, published 2006)
